Patent US6713610

Legend:
[1] = target: T1, human recombinant IL-8 (human, UniProt P10145 28-99); test: BIAcore SPR, IL-8 immobilized (81 RU surface), hybridoma supernatant as analyte
T1 construct: also called hIL8; h-IL-8
T1 sequence (looked up): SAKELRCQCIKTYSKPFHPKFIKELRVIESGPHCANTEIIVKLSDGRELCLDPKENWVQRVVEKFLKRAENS

[2] = target: T1, human recombinant IL-8; test: BIAcore SPR, IL-8 immobilized (134 RU surface), hybridoma supernatant as analyte

B1: I8K4.2 (antibody, V domains shown)
VH: SLTCAVYGGSFSGYYWTWIRQPPGKGLEWIGEIIHHGNTNYNPSLKSRVSISVDTSKNQFSLTLSSVTAADTAVYYCARGGAVAAFDYWGQGTLVTVSS
VL: TQSPSSLSASVGDRVTITCQASQDISNYLNWYQQKAGKAPKVLIYAASNLEAGVPSRFSGSGSGTDFTFTISSLQPEDIATYYCQHYDNLLTFGGGTKVEIKR
Kd [1]: 0.142 nM
koff [1]: 0.000817 s⁻¹
kon [1]: 5.76e+06 M⁻¹ s⁻¹
Kd [2]: 0.196 nM
koff [2]: 0.000384 s⁻¹
kon [2]: 1.95e+06 M⁻¹ s⁻¹
